System: USA300 strain LAC biofilm
Test: Protease and DNaseI treatment of USA300 titanium biofilms (CLSM, COMSTAT)
Assay type: cell-based, Staphylococcus aureus
Conditions: 2 day biofilm, Proteinase K 2 μg/mL or DNaseI 0.5 Units/mL
Experimental: FIGS. 4A-B. Protease and DNaseI treatment of USA300 titanium biofilms. Biofilms of LAC with plasmid pCM12 were grown for two days on titanium. Biofilms were either untreated or grown in the presence of Proteinase K or DNaseI. For treatments, Proteinase K was added to 2 μg/mL and DNaseI was added to 0.5 Units/mL to the flow cell media. At 6 and 22 hr, CLSM images were obtained and analyzed. (FIG. 4A) Representative CLSM image reconstructions generated from a z series. Each side of the image grid square is 20 μm. (FIG. 4B) COMSTAT analysis of images represented in terms of average thickness (μm) and biomass (μm^3/μm^2). Green triangles represent untreated biofilm, red circles represent DNaseI treatment, and black squares represent Proteinase K treatment. Error bars represent standard deviation.
Biofilm Assays. For biofilms grown on glass, flow cell biofilm growth, confocal scanning laser microscopy (CSLM), and computer image analysis were performed as previously described (Boles and Horswill, 2008). […] For biofilm dispersal tests, AIP type I (AIP-I) was synthesized and quantified using an intein system (Malone et al., 2007), and biofilm dispersal tests were performed as previously described (Boles and Horswill, 2008). […] LAC biofilm integrity was monitored at 6 hr and 22 hr, and COMSTAT analysis was performed to quantify the biofilm properties. […]

B1: proteinase K: Proteinase K (Research Productions International), protease added to flow cell media (protein, UniProt P06873 106-384, looked up)
Proteinase K: AAQTNAPWGLARISSTSPGTSTYYYDESAGQGSCVYVIDTGIEASHPEFEGRAQMVKTYYYSSRDGNGHGTHCAGTVGSRTYGVAKKTQLFGVKVLDDNGSGQYSTIIAGMDFVASDKNNRNCPKGVVASLSLGGGYSSSVNSAAARLQSSGVMVAVAAGNNNADARNYSPASEPSVCTVGASDRYDRRSSFSNYGSVLDIFGPGTSILSTWIGGSTRSISGTSMATPHVAGLAAYLMTLGKTTAASACRYIADTANKGDLSNIPFGTVNLLAYNNYQA
6 hr
  LAC biomass detached from the titanium surface: approximately 93%
22 hr
  LAC biomass detached from the titanium surface: all of the LAC biomass had detached
